The target in experiment [1] is MreB from Geobacillus stearothermophilus (MreB^Gs), wild type, 6-histidine-tagged (Geobacillus stearothermophilus ATCC 7953). The experiment can be described thus: negative-stain electron microscopy; standard conditions with the lipid monolayer but without ATP.
The target is the same in experiment [2]. The experiment can be described thus: negative-stain electron microscopy; standard conditions (2 mM ATP, 100 mM KCl, MreB 1.34 µM) without lipids, in solution; untreated or glow-discharged grids.
For experiment [3] the target is unchanged. The experiment can be described thus: negative-stain electron microscopy; MreB 1.34 µM (0.27-1.34 µM in the concentration series) under a monolayer of E. coli total lipid extract; 20 mM Tris pH 7, 100 mM KCl, 2 mM ATP, 5 mM Mg2+, 1-2 h at 25-37 °C; untreated carbon grids; 12 fields a grid scored for pairs of protofilaments; 2D averaging of 1554 particles.

Consider “MreB from Geobacillus stearothermophilus (MreB^Gs), wild type, 6-histidine-tagged (natural protein)”, for which the percent of EM fields with polymers in experiment [1] was 4 % of fields; in experiment [2] it was 8 % of fields; in experiment [3] it was 100 % of fields. This substance also returned a critical concentration of polymerization in experiment [3] of 0.45 µM.

The record behind these values is publication PMC10718530.
